Laboratory results reported in paper doi:10.1101/2021.10.06.463398, “Disruption of nucleoid expanded conformation by toxic aberrant proteins synthesized in Escherichia coli” (bioRxiv, 2021).
The star is where a group is joined. FITC = O=C1OC2(c3ccc(O)cc3Oc3cc(O)ccc32)c2ccc(NC(=S)*)cc21

B1: KL peptide, FITC-TEKAKLVIKLLALGKTEQ-NH2 (KL decapeptide of ARF48 with flanking extensions) (peptide)
peptide: {FITC}-TEKAKLVIKLLALGKTEQ-NH2
notes: ARF48 is a 48-residue product of the +1 alternate reading frame of Arabidopsis thaliana cDNA At3G62370, not a natural protein), C-terminal extension KTEQ; The core decapeptide is not part of a natural protein: it is an alternate-reading-frame translation product; also called synthetic KL decapeptide; source: synthetic peptide (Peptide 2.0, Inc.)
B2: NR peptide, FITC-TEKANRLLLTGKTEQ-NH2 (canonical DnaK peptide substrate NRLLLTG with flanking extensions) (peptide)
peptide: {FITC}-TEKANRLLLTGKTEQ-NH2
notes: N-terminal extension TEKA, canonical DnaK substrate heptapeptide NRLLLTG, C-terminal extension KTEQ; source: synthetic peptide (Peptide 2.0, Inc.)

Target: T1, 6His-DnaK (E. coli molecular chaperone DnaK) (E. coli, UniProt P0A6Y8 1-638)
T1 construct: No tag removal is described; also called purified E. coli DnaK protein; source: E. coli, ASKA expression clone, purified (Ni-NTA agarose)
T1 sequence (P0A6Y8 whole entry): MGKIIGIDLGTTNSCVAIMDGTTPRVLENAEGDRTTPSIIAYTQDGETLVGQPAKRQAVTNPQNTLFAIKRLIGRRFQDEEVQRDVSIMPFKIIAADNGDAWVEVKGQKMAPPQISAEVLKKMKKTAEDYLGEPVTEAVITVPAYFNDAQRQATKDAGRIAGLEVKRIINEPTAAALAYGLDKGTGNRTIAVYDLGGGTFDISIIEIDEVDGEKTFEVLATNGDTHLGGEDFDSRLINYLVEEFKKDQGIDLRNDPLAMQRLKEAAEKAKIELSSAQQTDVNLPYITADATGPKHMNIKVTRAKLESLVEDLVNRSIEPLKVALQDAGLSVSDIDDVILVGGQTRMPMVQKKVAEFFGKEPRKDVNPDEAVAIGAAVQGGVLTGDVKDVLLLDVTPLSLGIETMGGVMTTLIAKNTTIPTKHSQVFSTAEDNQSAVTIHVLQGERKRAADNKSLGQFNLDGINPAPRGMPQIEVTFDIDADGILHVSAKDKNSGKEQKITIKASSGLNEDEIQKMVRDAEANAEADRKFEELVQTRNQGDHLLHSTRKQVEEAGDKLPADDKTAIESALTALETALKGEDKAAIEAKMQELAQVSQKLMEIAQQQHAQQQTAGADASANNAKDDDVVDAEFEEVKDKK
Experiment: MST; 20 nM fluorescein-labelled peptide with varying concentrations of DnaK; MST buffer (50 mM Tris pH 7.4, 150 mM NaCl, 10 mM MgCl2, 0.05% Tween-20, 0.05% bovine serum albumin); 1 h at 20°C; Monolith NT.115
Conditions: both partners purified

Binder	binding result
B1	binds
B2	binds
